Experiment: label from the status in PepcDB records
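Note: failed if final PepcDB status was selected cloned or expressed and not failed if soluble or beyond.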

Sequence: TINSKFQSDVSAALKKYMGTDLTTGGYAAVMNPKTGGVYAMAGWDRNVKTGKLTQNDLAAIQDPIVMGSAVKPAMVSMALQAGVITPTSSTQDDQIIKLAGTAEKHSDFNPTGVKIPLTAEQALEDSSNTYMIQLALKMNGTPYVSGMSLNVSSNIWQKMRNGFGEFGLGSRTGIDLPGETAGYKGSITGSLASSFIDEAFGQYDTYSVIQMARFVSTIANGGYLVQPKVVASVLKSGKNGVRSSVASEVSPTIQGYVKMNNAQWNVIKTGMWDVANGSSQYNTGGTLIHELSPKVAAKTGTAESFVDGQQTQNDTLIMYSPYAPFAIAIAYVGDKVDSFGAVEKAAAAIYNAFWKDVMPKPND
- protein production: failed

Sequence: TKIKSVRTRVWNWTGPTVPPQGNFCTNASDALWIQGDAMASFRFHQWLTCEVETEDGTIGIGNAALAPNVVKQAIDEWYAPLVIGEDPFDYAYLWEKMYRRTHAWGRKGIGMTAISAIDIAIWDLMGKLVGKPVFKLLGGRTKEKIPVYYSKLYADSIPAMQAEAEEAQKHGYQGYKTRFGYGPKDGPAGMRENLKRVEALREVLGYDVDLMLECYMGWNLDYTKRMLPKLERFEPRWLEEPVIADDVAGYAELNAMGIVPISGGEHEFSVMGCAELINRKAVSVLQYDTNRVGGITAAQKINAIAEAAQIIVIPHAGQMHNYHLTMANMNCPISEYFPVFDVEVGNELFYYIFDGDPEAVDGYLQLDDDTPGLGITISDAHLKHFEITE
- protein production: not failed

Sequence: TKTTTQGAKSGVFDTVDEAVQAAVIAQNCYKEKSLEERRNVVKAIREALYPEIETIATRAVAETGMGNVTDKILKNTLAIEKTPGVEDLYTEVATGDNGMTLYELSPYGVIGAVAPSTNPTETLICNSIGMLAAGNAVFYSPHPGAKNISLWLIEKLNTIVRDSCGIDNLIVTVAKPSIQAAQEMMNHPKVPLLVITGGPGVVLQAMQSGKKVIGAGAGNPPSIVDETANIEKAAADIVDGASFDHNILCIAE
- protein production: not failed

Sequence: TLPGRISRERRGHLLLLGLDRVAKRNAFDLPMLDDLVAALGEYEADDQLRCALLFAHGEHFTAGLDLANVGETFRQGWKLPEGAVDPWGTFGGRRPSKPLVVAVQGYCYTIGIELMLAADINLCASNARFAQLEVQRGILPFGGATLRMHQVAGWGNAMRWLLTGDEFDAHEAYRLGLVQEVTAPEDLLDHAIALAERVAAQAPLGVRATLGSARQALLEGEAVAAAALPEAARRLLDSEDAKEGLRALQERRPGRFE
- protein production: failed

Sequence: TPGRGSRVTDQGICPKHQEALKLFCEVDEEAICVVCRESRSHKQHSVVPL
- protein production: not failed

Sequence: TPIINDPETVKLFLLTELQHEEREVFMVLFLDNQHRLIKKERLFLGTIYVSAVYPREIIKEALYCNAAALILAHNHPSGITEPSYSDQLITKKIQDAAELMEIRVLDHLIVGKSDCYSFAENCLL
- protein production: failed

Sequence: TPSRVEAFDNSNIHGTDPVSAMVTFLDGKPSKNDYRKYKIKTVEGPDDYATMREVIRRRYWRVLKEGLPMPDLILIDGGKGQIDSAKDVLTNELGLDIPVAGLAKDDKHRTSQLLFGDPLEIVPLERNSQEFYLLQRMQDEVHRFAITFHRQLRSKTGFQSILDGIPG
- protein production: failed

Sequence: TQNLREKQEIAKRAACDIQDHECIFLDAGSSTFELIQYIEAKDITVVTNGMTHVEELLKHGIKTLMVGGQVKPTTMATVGANALETLRRYCFDRAFIGMNGIDVKYGLTTPDEQEALIKETAMKLSNHKYVLVDQSKFNQIYFARVSILDGLSIITSQKAMQSKMTEAYMNEFNFIGGKS
- protein production: failed

Sequence: TQSNLYSFLKAISNRFSQYNYSSILCVTSISFDIFILETLFPIFMGKTCVFASDEEIEDISKLTQLIRIYQVDTIQSTPSRWGIFTEDEQLMTLLKERLKLVLVGGEKLTKNIAEKLLSIGGKLINLYGPTEATVWAFASEVTDPNQIYLGEP
- protein production: failed

Sequence: TRMAPVIMVPGSSASQNRFDSLITELGKETPKKHSVLKLTVQTDGTIKYSGSIAANDNEPFIVIGFANNRDGKANIDKQAVWLNTAFKALVKTYHFNHFYALGHSNGGLIWTLFLERYLKESPKVHIDRLMTIASPYNMESTSTTAKTSMFKELYRYRTGLPESLTVYSIAGTENYTSDGTVPYNSVNYGKYIFQDQVKHFTEITVTGANTAHSDLPQNKQIVSLIRQYLLAETMPDK
- protein production: not failed

Sequence: TRMAPVIMVPGSSASQNRFDSLITELGKETPKKHSVLKLTVQTDGTIKYSGSIAANDNEPFIVIGFANNRDGKANIDKQAVWLNTAFKALVKTYHFNHFYALGHSNGGLIWTLFLERYLKESPKVHIDRLMTIASPYNMESTSTTAKTSMFKELYRYRTGLPESLTVYSIAGTENYTSDGTVPYNSVNYGKYIFQDQVKHFTEITVTGANTAHSDLPQNKQIVSLIRQYLLAETMPDKVRQKNAQRVQN
- protein production: not failed

Sequence: TVLYVHGGAWFQDPLENHFEYLDLLVDALDARVIMPVYPKIPHRDYRTTFELLTKIYKRLLTKIDEPENLVIIGDSAGGQIALAFAQMLKKEQLSQPGHIVLISPVLDATFKNPEARKYEKEDPMLGIDGSKYLVELWAGDAPLDDYKMSPMNGDLEGLGHITLTVGTKETLYPDAVKFSHMLNDKGIKHQFIPGYNLFHIYPLFPIPERQRFLEQLKKII
- protein production: failed

Sequence: VAARPPALCKGCSHRDVYDALNEVLTEYPNGRVFSDIGCYTLGALPPYEAINSCVDMGASITMAKGAADAGLFPAVSVIGDSTFTHSGITGLLDAINENSNITVIISDNESISMTGGQHSSAYGKVEAICRGIGVDPDHIRELLPVPKNHDELCSIIREEINYEGVSVIIPRRVCIQKHARDAKAAKRAKAKE
- protein production: failed

Sequence: VADASDPIRPLVEALNAEAPLKLWSVLVTCLGDVSRDGVIEVSGVALSSFVERMGLQPQAMRVALHRLKRDGWVESRRLGRVGFHRLSDSALTQTRAVAGRIYGPGAGPAPWHLAGMPPDAPDGLSLLPDTLSATPISRRFALICGPLEDVPEDWLLTAPSGRGLPVWVQDVVVEAGCEAEFKALERTLAQIDKVPDTRLERFTLRVLVLHAWRRLILRSSPAAEAALGGARAEISCRARVHQLLDQLGSVEPDWDLPATEDAAS
- protein production: not failed

Sequence: VALCVLRRSDGRVVLENTLSQQWLGNGSERDQLCSGWIEQAFDPARPNSSDYFETADGRHLYLSSAPTRYNGEDVLFCAFSDISARKQIEAALEEAKRLADTANEAKTLFLATMSHEIRTPLYGVLGTLELLSRTQ
- protein production: failed

Sequence: VARTAEEQANHDLVIEMYNKVLIAMDSSAVDRYIAPGYVQHSSLAEPSVEALKGFLDRVRAESPDARQTIHRSFVDGDHVITHTHVERWPGDAGLAVVDIFRVEGGMIVEHWDVIQDVPANPVNPNSMF
- protein production: not failed

Sequence: VDKINPDLRVHLRLDRGEAILSLDLSGHSLHQRGYRLQQGAAPLKENLAAAILIRAGWPRIAAEGGALADPMCGVGTFLVEAGMIAADIAPNIKRERWGFSAWLGHVPTLWRKLHDEALARAEAGLAKTPSWIRGYEADPRLIQPGRNNIERAGLSDWIKVYQGEVATFEPRPDQNQKGLVICNPPYGERLGDEASLLYLYQNLGERLRQACLNWEAAVFTGAPDLGKRMGIRSHKQYSFWNGALPCKLLLIKVTPDQF
- protein production: failed

Sequence: VEGPCEAKIECSDNGDGTCSVSYLPTKPGEYFVNILFEEVHIPGSPFKADIEMPFDPSKVVASGPGLEHGKVGEAGLLSVNCSEAGPGALGLEAVSDSGTKAEVSIQNNKDGTYAVTYVPLTAGMYTLTMKYGGELVPHFPARVKVEPAVDTSRIKVFGPGIEGKDVFREATTDFTVDSRPLTQVGGDHIKAHIANPSGASTECFVTDNADGTYQVEYTPFEKGLHVVEVTYDDVPIPNSPFKVAVTEGCQPSRVQAQGPGLKEAFTNKPNVFTVVTRGAGIGGLGITVEGPSESKINCRDNKDGSCSAEYIPFAPGDYDVNITYGGAHIPGSPFR
- protein production: failed

Sequence: VEVESFLVHPGDLLQLRCRLRDDVQSINWLRDGVQLAESNRTRITGEEVEVQDSVPADSGLYACVTSSPSGSDTTYFSVNVSDALP
- protein production: not failed

Sequence: VGDHDSHEVMQRLDALLPTLRERAQETEDLRRIPDDSMKALQETGFFRLLQPEQWGGYQADPVLFYSAVRKIASACGSTGWVSSIIGVHNWHLALFSQQAQEDVWGNDTDVRISSSYAPMGAGQVVDGGYTVNGAWAWSSGCDHASWAVLGGPVIKDGRPVDFVSFLIPREDYRIDDVWNVVGLRGTGSNTVVVEDVFVPTHRVLSFKAMSNLTAPGLERNTAPVYKMPWGTIHPTTISAPIVGMAYGAYDAHVEHQGKRVRAAFAGEKAKDDPFAKVRIAEASSDIDAAWRQLSGNVADEYALLVAGEEVPFELRLRARRDQVRATGRAISSIDKLFESSGATALANGTPLQRFWRDAHAGRVHAANDPERAYVMYGTGEFGLPITDTMV
- protein production: not failed

Sequence: VGKLKIYFGFAAGVGKTYAMLSDAKDQLAAGVDVVAGYIEPHAREETLRMLEGIPIIPPKAINHKNIALKEFDLDEALKRKPELILVDELAHTNASGVRNKKRFQDVEELLQAGIDVYTTVNVQHIESLNDIVEGITKVAVRETIPDYVFDEADRVKLIDIEPDELLKRLEQGKIYQPARAKTAMQNFFTRENLKLLREIAMRKAADRISHEYDQTGIYPE
- protein production: not failed

Sequence: VGPHAALMDATYRHQRRIYDITRRHFLLGRDELIAALAPPPGARVLEIACGTGRNLDLIDRRWPGLRLYGLDISEEMLRTARARLGTRARLAQGDATDFDARALFGAARFERIVISYALSMIPDWRPALAHAASLLSKEGELHVVDFGDQAGLPRWFRTGLRGWIGRFHVEPRDDLGAALAEVAAGVG
- protein production: failed

Sequence: VHVEDALTYLDQVKIRFGSDPATYNGFLEIMKEFKSQSIDTPGVIRRVSQLFHEHPDLIVGFNAFLP
- protein production: not failed

Sequence: VIKKEGPGWRIIFDSSRDNFSTLIGGETWAIELDKSEWKILVEVVMELCDQYKLVKEQLMGDEDITLELERRPWLAILNGDQYGWNLRLILSASGLFNRGAEVYWPRHVTNNVVNAMRSMWDSDYL
- protein production: not failed

Sequence: VISSDVIRGYVDTIILSLLIEGDSYGYEISKNIRIKTDELYVIKETTLYSAFARLEKNGYIKSYYGEETQGKRRTYYRITPEGIKYYKQKCEEWELTKKVINKFVKELESNGDN
- protein production: not failed

Sequence: VKFLTVNDDILSMPQARNFCASAGGYLADDLGDDKNNFYSSIAANTQFWIGLFKNSDGQFYWDRGQGINPDLLNQPITYWANGEPSNDPTRQCVYFDGRSGDKSKVWTTDTCATPRPFICQKHRYDSDHKPNTIGDA
- protein production: not failed

Sequence: VLAEYASRIVSAEEAVKHIKNGERVALSHAAGVPQSCVDALVQQADLFQNVEIYHMLCLGEGKYMAPEMAPHFRHITNFVGGNSRKAVEENRADFIPVFFYEVPSMIRKDILHIDVAIVQLSMPDENGYCSFGVSCDYSKPAAESAHLVIGEINRQMPYVHGDNLIHISKLDYIVMADYPIYSLAKPKIGEVEEAIGRNCAELIEDGATLQLGIGAIPDAALLFLKDKKDLGIHTEMFSDGVVELVRSGVITGKKKTLHPGKMVATFLMGSEDVYHFIDKNPDVELYPVDYVNDPRVIAQNDNMVSINSCIEIDLMGQVVSECIGSKQFSGTGGQVDYVRGAAWSKNGKSIMAIPSTAKNGTASRIVPIIAEGAAVTTLRNEVDYVVTEYGIAQLKGKSLRQRAEALIAIAHPDFREELTKHLRKRFG
- protein production: not failed

Sequence: VLWISSSPVLQRFDKPLLQYISKDVNVAQWEYRHHRDEGSSIDEAVDLLAEFMGQCPYPVNLAGHAAGGAIALSFARRYPKKVRSLSLLAVASQPANTWHAHYYLQRQLFTISREQILANTVRNLFGEQPSHTTKKLVAVLDRDLEQSPLLHSLFKLVHLPEGGVNMPLMICGSKNDPIVSSTTLQDWSNCLKPEDHLWECPKGHHFFHYFYPQTVGDQLLNFWQ
- protein production: failed

Sequence: VMEIEARLEDVRQRIADVAEKSGRKAADVALVAVSKTFDAEAIQPVIDAGQRVFGENRVQEAQGKWPALKEKTSDIELHLIGPLQSNKAADAVALFDVVESIDREKIARALSEECARQGRSLRFYVQVNTGLEPQKAGIDPRETVAFVAFCRDELKLPVEGLMCIPPAEENPGPHFALLAKLAGQCGLEKLSMGMSGDFETAVEFGATSVRVGSAIFGSR
- protein production: not failed

From a protein production outcome set (Wang et al. 2014)
